Assay results reported in paper PMC2853223 (ACS chemical biology, 2009).

Test: SPR affinity of His-tagged PikAIII ACPdd for nickel-NTA sensor chip
Format: binding
Settings: BIAcore 3000, nickel-loaded NTA sensor chip, HBS-P+E pH 7.4

Kd: 4 ± 0.04 nM
B1: His-tagged PikAIII ACPdd: C-terminal (ACP-side) docking domain of PikAIII, pikromycin PKS (protein)
chain: LAPAEPAPTDWEGRVRRALAELPLDRLRDAGVLDTVLRLTGIEPEPGSGGSDGGAADPGAEPEASIDDLDAEALIRMALGPRNT
modifications: left off: His6, N-terminal, kept
